Earlier results on 1 substance are cited in PMC3604136.

pKd: −log10 of the molar value.

In this series the target is ARNT PAS-B (Homo sapiens) (UniProt P27540).
ARNT PAS-B (Homo sapiens), sequence (P27540 356-470): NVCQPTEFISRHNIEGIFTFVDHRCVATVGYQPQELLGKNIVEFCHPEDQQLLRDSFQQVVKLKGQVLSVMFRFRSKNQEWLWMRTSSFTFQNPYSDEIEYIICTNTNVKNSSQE

HIF-2α PAS-B, sequence (Q99814 239-350): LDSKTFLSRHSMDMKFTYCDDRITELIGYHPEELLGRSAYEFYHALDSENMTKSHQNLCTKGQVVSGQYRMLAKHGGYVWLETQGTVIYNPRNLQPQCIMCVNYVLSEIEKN

Consider HIF-2α PAS-B (from UniProt Q99814), for which the pKd is 4.00.

For orientation: pKd means −log10 of the Kd, conventionally taken in molar units.
